According to PMC8772750:
Read-outs that look alike come from different tables or passages of the source.

Legend:
human α-thrombin (human) [1] = target: human α-thrombin (human) (UniProt P00734)
human α-thrombin (human) [2] = target: human α-thrombin (human) (UniProt P00734); assay: enzyme inhibition kinetics (thrombin amidolytic assay with S-2238); tight-binding assay: inhibitor incubated with 500 pM thrombin for 30 min at 37 °C, then S-2238 added to 50-500 µM; 50 mM Tris-HCl pH 8.4, 150 mM NaCl, 0.1% PEG 6000; Morrison equation for tight-binding competitive inhibitors, apparent Ki' plotted against substrate concentration to obtain Ki
[3] = target: Variegin (Amblyomma variegatum) (UniProt P85800); settings: cited from earlier work
[4] = target: Variegin (Amblyomma variegatum) (UniProt P85800); settings: cited from earlier work; remark: listed apart in the source

“recombinant variegin from the tick Amblyomma variegatum (from UniProt P85800 1-32) (peptide)” gave an IC50 of inhibition of thrombin amidolytic activity (500 pM thrombin, 100 µM S-2238), preincubation 0 min (human α-thrombin (human) [1]) of 14.6 nM, an IC50 of inhibition of thrombin amidolytic activity (500 pM thrombin, 100 µM S-2238), preincubation 30 min (human α-thrombin (human) [1]) of 18.4 nM and a Ki (human α-thrombin (human) [2]) of 0.372 nM.

For “recombinant hirudin-1 from Hirudo medicinalis (desirudin) (from UniProt P01050 1-65) (natural protein)”, the IC50 of inhibition of thrombin amidolytic activity (500 pM thrombin, 100 µM S-2238), preincubation 0 min (human α-thrombin (human) [1]) was 21.5 pM, the IC50 of inhibition of thrombin amidolytic activity (500 pM thrombin, 100 µM S-2238), preincubation 30 min (human α-thrombin (human) [1]) was 28 pM and the Ki (human α-thrombin (human) [2]) was 0.000217 nM.

Substance “recombinant haemadin from the leech Haemadipsa sylvestris (natural protein)” has an IC50 of inhibition of thrombin amidolytic activity (500 pM thrombin, 100 µM S-2238), preincubation 0 min (human α-thrombin (human) [1]) of 22 pM, an IC50 of inhibition of thrombin amidolytic activity (500 pM thrombin, 100 µM S-2238), preincubation 30 min (human α-thrombin (human) [1]) of 33.1 pM and a Ki (human α-thrombin (human) [2]) of 0.000237 nM.

Substance “recombinant anophelin from Anopheles albimanus (natural protein)” has an IC50 of inhibition of thrombin amidolytic activity (500 pM thrombin, 100 µM S-2238), preincubation 0 min (human α-thrombin (human) [1]) of 6.35 nM, an IC50 of inhibition of thrombin amidolytic activity (500 pM thrombin, 100 µM S-2238), preincubation 30 min (human α-thrombin (human) [1]) of 6.78 nM and a Ki (human α-thrombin (human) [2]) of 0.0994 nM.

In the case of Thrombin (from UniProt P00734), the Ki [3] is listed as 0.0104 nM and the Ki [4] is listed as 14 nM.
